From US20230219996A1

Tests used:
[1] = molecular target: SARS-CoV-2 spike (Wuhan, wild-type) (SARS-CoV-2) (UniProt P0DTC2); test: MSD V-PLEX ACE2 kit, sVNT, positive control; competitor ACE2 (mouse study)
[2] = molecular target: SARS-CoV-2 spike (Wuhan, wild-type) (SARS-CoV-2) (UniProt P0DTC2); test: MSD V-PLEX ACE2 kit, sVNT, positive control; competitor ACE2 (NHP study)

Q: “ACE2 Calibration Reagent (included in the MSD kit)” was tested. Which ACE2-binding percent inhibition [1] did it give?
A: 100%

Q: What about the ACE2-binding percent inhibition [2] of the same substance?
A: 100%
